Assay results from article doi:10.1101/2025.08.16.670655, “A Phosphorelay Circuit Drives Extracellular Alkalinization in Plant Receptor Kinase Signaling” (bioRxiv, 2025).

Target: T1, His-BIK1 (Arabidopsis thaliana, UniProt O48814 1-395)
T1 construct: BIK1, Arabidopsis; CDS cloned into pET28a, 6xHis fusion; source: E. coli BL21 (DE3) Rosetta pLysS, purified (HisPur cobalt resin); not shown: His6, N-terminal, kept
T1 sequence (looked up): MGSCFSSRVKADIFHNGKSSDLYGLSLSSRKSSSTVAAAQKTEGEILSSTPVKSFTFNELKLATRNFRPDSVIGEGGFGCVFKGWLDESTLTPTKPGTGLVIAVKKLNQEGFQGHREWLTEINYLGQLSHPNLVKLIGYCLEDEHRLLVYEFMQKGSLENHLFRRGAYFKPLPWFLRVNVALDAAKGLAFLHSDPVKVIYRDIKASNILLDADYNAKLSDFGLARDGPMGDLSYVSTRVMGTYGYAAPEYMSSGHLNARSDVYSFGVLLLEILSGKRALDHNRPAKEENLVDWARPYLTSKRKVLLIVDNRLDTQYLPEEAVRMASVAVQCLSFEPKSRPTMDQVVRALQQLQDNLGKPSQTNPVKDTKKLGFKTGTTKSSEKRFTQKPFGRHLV
Experiment: pull-down; MBP pulldown of His-BIK1 by His-MBP fusion proteins; 25 mM Tris-HCl pH 7.4, 100 mM NaCl, 0.2 % Triton X-100, 1 mM DTT, 4 °C, 1-2 h
Conditions: both partners purified

B1: His-MBP-GRF2 (natural protein, Arabidopsis thaliana, UniProt Q01525 1-259, looked up)
chain: MASGREEFVYMAKLAEQAERYEEMVEFMEKVSAAVDGDELTVEERNLLSVAYKNVIGARRASWRIISSIEQKEESRGNDDHVTAIREYRSKIETELSGICDGILKLLDSRLIPAAASGDSKVFYLKMKGDYHRYLAEFKTGQERKDAAEHTLAAYKSAQDIANAELAPTHPIRLGLALNFSVFYYEILNSPDRACNLAKQAFDEAIAELDTLGEESYKDSTLIMQLLRDNLTLWTSDMQDDAADEIKEAAAPKPTEEQQ
notes: GRF2, Arabidopsis; CDS cloned into pOPINM, 6xHis-MBP fusion; source: E. coli BL21 (DE3) Rosetta pLysS, purified (HisPur cobalt resin); not shown: His6, N-terminal, kept; MBP, N-terminal, kept
- binding result: binds
